Assays:
[1] = molecular target: BBMV proteins (brush border membrane vesicles) from fall armyworm (FAW; Spodoptera frugiperda) larval midgut (Spodoptera frugiperda); assay: heterologous competition: unlabeled Cry1Ca against 0.5 nM 125I Cry1Da (competitor pair Cry1Da/BBMV) on FAW BBMVs; reflects no displacement at Cry1Da sites, not lack of Cry1Ca binding to BBMVs
[2] = molecular target: BBMV proteins (brush border membrane vesicles) from fall armyworm (FAW; Spodoptera frugiperda) larval midgut (Spodoptera frugiperda); assay: homologous competition: unlabeled Cry1Da against 0.5 nM 125I Cry1Da on FAW BBMVs

Substance | IC50 [1] | IC50 [2]
Cry1Ca (purified truncated Cry toxin) (from UniProt P0A376 28-618) | > 1000 nM | –
Cry1Da (purified truncated Cry toxin) (from UniProt P19415 28-594) | – | 1.5 nM

Source: US20130007923A1
